Laboratory results from the DeepSol protein solubility set.

Assay: soluble on expression in E. coli; label from the status in PepcDB or PDB records

Sequence | soluble on expression in E. coli
MTFNHKKMEPKWQQYWSEHNTFKTTEDKNKENFYALDMFPYPSGAGLHVGHPEGYTATDILSRMKRMQGKNVLHPIGWDAFGLPAEQYAIDTGNDPEEFTALNIANFTRQIKSLGFSYDWDREINTTDPEYYKWTQWIFEKLYENGLAYEAEIAVNWCPALGTVLANEEVIDGKSERGGFPVFRKPMRQWMLKITAYADRLLDDLDLVDWPENIKDMQRNWIGRSEGAEVTFKIKDSDETFNVFTTRPDTLFGATYTVFAPEHELIEKITTPEQKEAVEAYKKQVELKSELERTDLAKDKTGVFTGAYAINPINGEEVPIWIADYVLIQYGTGAIMAVPAHDERDFEFAQQFGLNIRPVLEGGDVTKEAFTGDGPHINSDFLNGLAKAEAITAAIDWLEKEGIGSRKITYRLRDWLFSRQRYWGEPIPVIHWEDGETTLVPEEELPLLLPKATEIKPSGTGESPLANLHDWVNVTDENGRKGRRETNTMPQWAGSSWYFLRYIDPKNSEAIADKEKLAEWLPVDVYIGGAEHAVLHLLYARFWHKFLYDIGVVPTKEPFQKLFNQGMILGENNEKMSKSRGNVVNPDEVVEKYGADTLRLYEMFMGPLEASIAWNENGLEGARKFLDRIWRLLVTEEGTLAEKVTTDANANLEKAYHHMVKTVTNHYENLRFNTGISQLMIFINEAYKQDTIPKQYVEGFVQLLSPIAPHLAEELWEILGHTETISYVAWPTYDETKLVEDEVEIVLQVNGKVKSKITVAKSLGKEELEKIAQEDNKMKENLEGKTIRKVIVVPGKLVNIVAN | not soluble
MTKITLSDLPLREELRGEHAYGAPQLNVDIRLNTNENPYPPSEALVADLVATVDKIATELNRYPERDAVELRDELAAYITKQTGVAVTRDNLWAANGSNEILQQLLQAFGGPGRTALGFQPSYSMHPILAKGTHTEFIAVSRGADFRIDMDVALEEIRAKQPDIVFVTTPNNPTGDVTSLDDVERIINVAPGIVIVDEAYAEFSPSPSATTLLEKYPTKLVVSRTMSKAFDFAGGRLGYFVANPAFIDAVMLVRLPYHLSALSQAAAIVALRHSADTLGTVEKLSVERVRVAARLEELGYAVVPSESNFVFFGDFSDQHAAWQAFLDRGVLIRDVGIAGHLRTTIGVPEENDAFLDAAAEIIKLNLSAWSHPQFEK | soluble
MRRESYRERALVVRSYDFGEADRIIVLFTRGRGIVRGVAKGVRRAKSRFGSRLQPFVELDVQLYRGRNLESITAADTVAYFGAKIIDDVTRFSAASSILEGVEKLAVGDEPRLFDLTVTALKNMQSCAHPVAEVDTFLLQGMNIAGWAPSLFDCAQCGASGPHHAFHPSPGGAVCVHCRPLGAQEVDPETLHMMWLMAQGHRDAVAEIGTPERYQQAHALIRSHLSWHVERGLASLNVLDQV | not soluble
GPGSMMSSATLSDVETLENIPRGAPIGGSGIVSGTASEGSSRGAERSTVANVSEDGERGRREEEEDRKPLIMDQSVIMDEEPYISPAKAKKISWKCGLCGYYVLAMDHNGNPLELTNSPSGEPLPMSCPRCMLLHHDWEPAVPFDDFNNHANIRSKQSNSYVISDQKSGKQAGFVPARTPAERDLKKTSADITRILQEVEDRWRNYAPRESPTSREQGPKGRLMAYYCDKCNRELLRMDQYGELVPMVSDKEGKPLPIVCPGCKEEHSEWVVRPFTVTR | soluble
MKGYQSLVFNFFFLKLSAENESTPIQQLLEHFLRQLQRKDPHGFFAFPVTDAIAPGYSMIIKHPMDFGTMKDKIVANEYKSVTEFKADFKLMCDNAMTYNRPDTVYYKLAKKILHAGFKMMSKERLLALKRSMSFMQDMDFSQQAALLGNEDTAVEEPVPEVVPVQVETAKKSKKPSREVISCMFEPEGNACSLTDSTAEEHVLALVEHAADEARDRINRFLPGGKMGYLKRNGDGSLLYSVVNTAEPDADEEETHPVDLSSLSSKLLPGFTTLGFKDERRNKVTFLSSATTALSMQNNSVFGDLKSDEMELLYSAYGDETGVQCALSLQEFVKDAGSYSKKVVDDLLDQITGGDHSRTLFQLKQRRNVPMKPPDEAKVGDTLGDSSSSVLEFMSMKSYPDVSVDISMLSSLGKVKKELDPDDSHLNLDETTKLLQDLHEAQAERGGSRPSSNLSSLSNASERDQHHLGSPSRLSVGEQPDVTHDPYEFLQSPEPAASAKT | soluble
MITTFETILDKIKAHQTIIIHRHQNPDPDALGSQAGLKEIIAQNFPDKKVLMTGFDEPSLAWISQMDQVTDKDYKEALVIITDTANRPRIDDERYTLGKCLIKIDHHPNDDVYGDFYYVDTSASSASEIIADFAFSQNLTLSDKAAKLLYTGIVGDTGRFLYASTTSKTLSIASQLRHFEFDFAAISRQMDSFPLKIAKLQSYVFEHLTIDESGAAYVLVSQETLKHFDVTLAESSAIVCAPGKIDNVQAWAIFVELTDGNYRVRMRSKEKIINGIAKRHGGGGHPLASGANSANLEENQAIFRELIAVCQEILEHHHHHH | soluble
MSTEQANGTTIEEKKDKVAEVTEKLDNLAVDTTNEANDAKQPARRGGFRGRGRGRGRGGHFYQPRPPYEDQMKKLEEDLASKKVIETGVKGHVKWFSVRGRYGFVARDKPTDENEDFFVHQTAITKSSTIKFYLRTLDDDEPVVFDIVEGLKGPEAANVTGPDGENVRGSRFARTLLTHWRTRGRGGARGRGGRGRGAPRQTRDQDGDEKDEKEKSDTIENSGDGETRGKRRTRRHGKLQPDAPSGEKGDGDAAAATTDAAPAAEKKKKRQRKGNKEPTTTTEQKEETAAPAKA | not soluble
MAYLEQLQAGLRYLGRAGESGRKSLDKVVAPVNGAISEIRGAAAELENLPGVSPEMAARLQRAMRGIGQAQGKVNRVVSTYDRASRALLGIDERLDALKVQVNSAAQAVGKVAGDISPTLAGVLPSWLLAPSATPPSEAAASLPHLLVLQPLTANAQPFYFNLNTAAFDALQRNSAYNWSGQVRLGRRPALQSVGMGEESILLKGAVFPLRRQVGNQEKVVGLEQLEALRRLAERREPLILSSGYGEVQMGLWCLVRISENQSALLGNGAPRKQTFDLEFKRYGDDLPNR | not soluble
LRARTYGEGGFRVERVLEERPAFTRVQFSYLSDGLRVHGFANLPKGRGPFPVVVVLHGYVEPSRYRLLAYTTPYADFLAERGYLVLHPNFRGHPPSEGAPAQGLRHVYAVDVLNLLAEVRRGAFPQADPARIALFGHSMGGGVAQIVSLVDPGLKGAVLYGSMSGDERRNLERIRYWSGGSRGQELFALSPEVLRQASAWTYLAELSVPYSVHHGTQDAQVPPEWSWELCRRLKALKKPVECFSYPGGHLFRGEVDRVFRERVLAFLGRVL | soluble
MAHHHHHHMNVLTSHTHLHMRRSCCMATARGCLGNIRTSDVSTRRCKGDYGFNIFHNSNPQHGASYARHERRMREDEVEDFLKSVKGWVPVDECFPCVDADADAEGADARKEEKEEMGPAPLTIFTGEGALKRDFDFANFRDAYLFMGRLWAFCYGSDKYPNVTWEGTRITVYIYSPSFRGLSKREARLAAFLNDQYNMFKKSKRQQKVIIDGVVKRSVIEDMMGECVAEALKRREEERQKPLAETVEGIATSWEAVLSKDGNNNNNDGTPSSCTSP | not soluble
MGSDKIHHHHHHMRIIETIEEMKKFSEEMREKKKTIGFVPTMGYLHEGHLSLVRRARAENDVVVVSIFVNPTQFGPNEDYERYPRDFERDRKLLEKENVDCIFHPSVEEMYPPDFSTYVEETKLSKHLCGRSRPGHFRGVCTVVTKLFNIVKPHRAYFGQKDAQQFRVLRRMVRDLNMDVEMIECPIVREPDGLAMSSRNVYLSPEERQQALSLYQSLKIAENLYLNGERDAEKIKEEMIKHLSRFDKVKIDYVEIVDEETLEPVEKIDRKVIVAVAAWVGNARLIDNTILG | not soluble
MIHLYDAKSFAKLRAAQYAAFHTDAPGSWFDHTSGVLESVEDGTPVLAIGVESGDAIVFDKNAQRIVAYKEKSVKAEDGSVSVVQVENGFMKQGHRGWLVDLTGELVGCSPVVAEFGGHRYASGMVIVTGKGNSGKTPLVHALGEALGGKDKYATVRFGEPLSGYNTDFNVFVDDIARAMLQHRVIVIDSLKNVIGAAGGNTTSGGISRGAFDLLSDIGAMAASRGCVVIASLNPTSNDDKIVELVKEASRSNSTSLVISTDVDGEWQVLTRTGEGLQRLTHTLQTSYGEHSVLTIHTSKQSGGKQASGKAIQTVIKNDELESVLRRLTSN | soluble
HGSSHHHHHHSSENLYFQGHMWNSRKVGVLGGGQLGRMLVESANRLNIQVNVLDADNSPAKQISAHDGHVTGSFKEREAVRQLAKTCDVVTAEIEHVDTYALEEVASEVKIEPSWQAIRTIQNKFNQKEHLRKYGIPMAEHRELVENTPAELAKVGEQLGYPLMLKSKTMAYDGRGNFRVNSQDDIPEALEALKDRPLYAEKWAYFKMELAVIVVKTKDEVLSYPTVETVQEDSICKLVYAPARNVSDAINQKAQELARKAVAAFDGKGVFGVEMFLLEDDSIMLCEIASRIHNSGHYTIEGCALSQFDAHLRAILDLPIPAQSLEIRQPSIMLNIIGGAAPDTHLQAAECALSIPNASIHLYSKGAAKPGRKMGHITVTAPTMHEAETHIQPLIDVVDRIRA | soluble
MQPIPDVNQRIARISAHLHPPKSQMEESSALRRANCRAKGGAPGFKVAILGAAGGIGQPLAMLMKMNPLVSVLHLYDVVNAPGVTADISHMDTGAVVRGFLGQQQLEAALTGMDLIIVPAGVPRKPGMTRDDLFKINAGIVKTLCEGIAKCCPRAIVNLISNPVNSTVPIAAEVFKKAGTYDPKRLLGVTMLDVVRANTFVAEVLGLDPRDVDVPVVGGHAGVTILPLLSQVKPPSSFTQEEISYLTDRIQNGGTEVVEAKAGAGSATLSMAYAAVKFADACLRGLRGDAGVIECAFVSSQVTELPFFASKVRLGRNGIEEVYSLGPLNEYERIGLEKAKKELAGSIEKGVSFIRSHHHHHH | soluble
MGSDKIHHHHHHMRKLPPLRALQVFEAAARHLHFSRAAEELCLTQSAVSHQVRGLEQHLGQTLFARRGRELALTPKGEQLFLAVQSALDGLDSLCRQLNEAESRELRLAVYSSFAVKWLIPRLGDFRRQHPGIKIHLEMVSGDPPLSDQVADMFICGEQHQRGFWQTLLRPERLIPVCSPALANALGEALVMPLRLDSLPLLSVDEADIGPDWARWAKSQAQTLTQAQLQSYSHVLLAIEAAIAGQGIALASDFIVEGDIAAGKLMALPWPALETGFGFHFCCRERRLKEPAMAAFAEWIQQQAAMAG | not soluble
MIMATLVITIGNDDCVNEGINIICNQCRPIYMNEDNKIIVNVVGEEKFGAGHNAEYITKQVDKHLGIIRDYIIEGLTDCYVEYDENGKEIFIPKTK | not soluble
MAHHHHHHMLVKENHSVILYADEENVELVKLTSDGVLTNRKGTFLHKNIIGKKYGSKIYDSACRNYIYVLRRTPEFVAISLKKKTQTLYEHDISFICLLCNALPNKKIIEAGTGTGCLTYALASCVLPKGVIHTFEYNEERYEEVRNEFSNFENVKNNIKFHHKDVISDSFVEFQPGEIDSVFLDMPNPWLCVPHVKKVLKERGVFVIFLPCIEQVYKIIEALEENQFCEIVTYELVNKSWEIIRNGGPAGGCKRARQFSLGGAKETSDPLEGVKETGDPLEGVKETGGPLEGVKETGDPLEGVKETGDPLERAKQSNDPLERAKQSSDPSNEQKNCPTPAQSQNPTYRLRQKENKTHTGYLIFSKKELSDEHEQIEIELKGV | not soluble
MGHHHHHHSHALKRLEVEVELFNQPSEELENFDFIVSVGGDGTILRILQKLKRCPPIFGINTGRVGLLTHASPENFEVELKKAVEKFEVERFPRVSCSAMPDVLALNEIAVLSRKPAKMIDVALRVDGVEVDRIRCDGFIVATQIGSTGYAFSAGGPVVEPYLECFILIPIAPFRFGWKPYVVSMERKIEVIAEKAIVVADGQKSVDFDGEITIEKSEFPAVFFKNEKRFRNL | not soluble
